# Results: US20230265151A1, “GIP/GLP1 CO-AGONIST COMPOUNDS” (priority 2020, published 2023)
# Changes are numbered by the printed parent chain. *1 amine or outer side, *2 acyl side, *3 side chain or, on linkers, in order; H or OH if unused. Where no end group is shown, it is not given here. Side-chain parts run from the residue outwards. [ ]: non-standard residue; d: D form. The star is where a group is joined. Decanoyl(10-(4-HOOC-PhO)) = O=C(O)c1ccc(OCCCCCCCCCC(=O)*)cc1; αMePhe(2-F) = C[C@](N)(Cc1ccccc1F)C(=O)O; γGlu = O=C(O)[C@H](CCC(=O)[*:2])N[*:1]; αMeY = C[C@](N)(Cc1ccc(O)cc1)C(=O)O; αMeL = CC(C)C[C@](C)(N)C(=O)O; Orn = NCCC[C@H](N)C(=O)O; AEEA = NCCOCCOCC(=O)O; Aib = CC(C)(N)C(=O)O
# T1: human GIP receptor (human, UniProt P48546 22-466)
# T1 sequence (looked up): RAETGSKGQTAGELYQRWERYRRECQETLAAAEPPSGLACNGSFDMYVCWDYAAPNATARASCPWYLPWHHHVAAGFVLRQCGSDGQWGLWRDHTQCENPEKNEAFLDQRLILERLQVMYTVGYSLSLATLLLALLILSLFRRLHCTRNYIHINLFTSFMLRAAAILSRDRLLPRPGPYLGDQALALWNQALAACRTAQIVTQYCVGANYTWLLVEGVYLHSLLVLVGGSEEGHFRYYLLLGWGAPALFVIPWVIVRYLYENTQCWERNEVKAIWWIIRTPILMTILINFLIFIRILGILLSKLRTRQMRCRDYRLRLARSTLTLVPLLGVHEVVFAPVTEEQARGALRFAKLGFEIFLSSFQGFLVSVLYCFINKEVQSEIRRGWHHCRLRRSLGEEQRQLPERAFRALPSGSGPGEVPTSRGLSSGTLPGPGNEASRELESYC
# T2: human GIP receptor (human) (UniProt P48546)
# T2 sequence (looked up): T1 sequence (looked up)
# B1: Example 409 (peptide)
# peptide: YXEGTXTSDYXIXLDXKAQXKFIXXLIXGGPSSGAPPPS
# modifications: Y-Aib-EGT-αMeF(2F)-TSDY-Aib-I-αMeL-LD-Orn-K((2-[2-(2-Amino-ethoxy)-ethoxy]-acetyl)2-(γ-Glu)-(10-(4-carboxyphenoxy)decanoyl))AQ-Aib-K((2-[2-(2-Amino-ethoxy)-ethoxy]-acetyl)2-(γ-Glu)-(10-(4-carboxyphenoxy)decanoyl))FI-(D-Glu)-αMeY-LI-Orn-GGPSSGAPPPS-NH2
# B2: Example 405 (peptide)
# peptide: B1 peptide with Y10X, X28E
# modifications: Y-Aib-EGT-αMeF(2F)-TSD-4Pal-Aib-I-αMeL-LD-Orn-K(PEG4-(γ-Glu)-CO-(CH2)12-CO2H)AQ-Aib-K(PEG4-(γ-Glu)-CO-(CH2)12-CO2H)FI-(D-Glu)-αMeY-LIEGGPSSGAPPPS-NH2
# B3: Example 394 (peptide)
# peptide: B1 peptide with Y10V, X28E
# modifications: Y-Aib-EGT-αMeF(2F)-TSDV-Aib-I-αMeL-LD-Orn-K((2-[2-(2-Amino-ethoxy)-ethoxy]-acetyl)2-(10-(4-carboxyphenoxy)decanoyl))AQ-Aib-K((2-[2-(2-Amino-ethoxy)-ethoxy]-acetyl)2-(10-(4-carboxyphenoxy)decanoyl))FI-(D-Glu)-αMeY-LIEGGPSSGAPPPS-NH2
# B4: Example 414 (peptide)
# peptide: B1 peptide with Y10X, K21X, X28K
# modifications: Y-Aib-EGT-αMeF(2F)-TSD-4Pal-Aib-I-αMeL-LD-Orn-K((2-[2-(2-Amino-ethoxy)-ethoxy]-acetyl)2-(γ-Glu)-CO-(CH2)10-CH3)AQ-Aib-Orn-FI-(D-Glu)-αMeY-LIK((2-[2-(2-Amino-ethoxy)-ethoxy]-acetyl)2-(γ-Glu)-CO-(CH2)10-CH3)GGPSSGAPPPS-NH2
# B5: Example 398 (peptide)
# peptide: B1 peptide with Y10V, X28E
# modifications: Y-Aib-EGT-αMeF(2F)-TSDV-Aib-I-αMeL-LD-Orn-K((2-[2-(2-Amino-ethoxy)-ethoxy]-acetyl)-(γ-Glu)-CO-(CH2)12-CO2H)AQ-Aib-K((2-[2-(2-Amino-ethoxy)-ethoxy]-acetyl)-(γ-Glu)-CO-(CH2)12-CO2H)FI-(D-Glu)-αMeY-LIEGGPSSGAPPPS-NH2
# B6: Example 396 (peptide)
# peptide: B1 peptide with K21E, X28K
# modifications: Y-Aib-EGT-αMeF(2F)-TSDY-Aib-I-αMeL-LD-Orn-K((2-[2-(2-Amino-ethoxy)-ethoxy]-acetyl)2-(10-(4-carboxyphenoxy)decanoyl))AQ-Aib-EFI-(D-Glu)-αMeY-LIK((2-[2-(2-Amino-ethoxy)-ethoxy]-acetyl)2-(10-(4-carboxyphenoxy)decanoyl))GGPSSGAPPPS-NH2
# B7: Example 410 (peptide)
# peptide: Y[Aib]EGT[αMePhe(2-F)]TSDV[Aib]I[αMeL]LD[Orn]K([AEEA-AEEA-γGlu-Decanoyl(10-(4-HOOC-PhO))])AQ[Aib]K([AEEA-AEEA-γGlu-Decanoyl(10-(4-HOOC-PhO))])FI[dE][αMeY]LI[Orn]GGPSSGAPPPS-NH2
# Molecular target: human glucagon receptor (human, UniProt P47871 26-477)
# Sequence (P47871 26-477): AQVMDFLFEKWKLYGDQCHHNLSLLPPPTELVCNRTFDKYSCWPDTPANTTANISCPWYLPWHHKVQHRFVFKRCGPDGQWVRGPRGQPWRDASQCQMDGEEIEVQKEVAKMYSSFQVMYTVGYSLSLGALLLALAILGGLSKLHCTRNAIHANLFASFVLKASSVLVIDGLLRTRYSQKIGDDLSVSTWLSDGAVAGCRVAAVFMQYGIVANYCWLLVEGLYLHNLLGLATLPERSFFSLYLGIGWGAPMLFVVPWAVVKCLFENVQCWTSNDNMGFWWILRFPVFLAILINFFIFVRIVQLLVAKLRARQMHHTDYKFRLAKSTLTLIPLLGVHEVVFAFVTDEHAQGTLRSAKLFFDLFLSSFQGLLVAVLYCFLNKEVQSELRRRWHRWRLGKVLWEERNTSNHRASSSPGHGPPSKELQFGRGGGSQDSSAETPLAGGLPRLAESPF
# Test: cell-based or functional assay
row,Binder,cAMP EC50 (1.0% HSA) [nM]
1,B1,> 9950
2,B2,> 9950
3,B3,> 9950
4,B4,> 9950
5,B5,> 9950
6,B6,> 9950
7,B7,> 9950

# Molecular target: human GLP-1 receptor (human, UniProt P43220 24-463)
# Test: cell-based or functional assay
Binder,cAMP EC50 (1.0% HSA) [nM],cAMP Emax (1.0% HSA) [%]
B1,8.05,97.7
B2,37.5,78.1
B3,5.83,
B4,3.24,
B5,41.3,
B6,6.49,94.4
B7,11,93.1

# Molecular target: T1, human GIP receptor
# Test: cell-based or functional assay
Binder,cAMP EC50 (1.0% HSA) [nM],cAMP Emax (1.0% HSA) [%]
B1,0.537,84
B2,1.23,
B3,1.38,84.6
B4,0.274,92.2
B5,5.4,91.9
B6,0.595,67.1
B7,1.28,86.4

# Molecular target: human glucagon receptor (human) (UniProt P47871)
# Test: cell-based or functional assay
row,Binder,cAMP EC50 [nM]
1,B1,> 9950
2,B2,> 9950
3,B3,> 9950
4,B4,> 9950
5,B5,> 9950
6,B6,> 9950
7,B7,> 9950

# Molecular target: T2, human GIP receptor (human)
# Test: cell-based or functional assay
Binder,cAMP EC50 [nM],cAMP Emax [%]
B1,0.00928,99.2
B2,0.0209,100
B3,0.0179,97.7
B4,0.00961,98.4
B5,0.0166,97.4
B6,0.0113,96.2
B7,0.0118,99.1

# Molecular target: hGLP-1R (Homo sapiens, UniProt P43220)
# Test: cell-based or functional assay
Binder,cAMP EC50 [nM],cAMP Emax [%]
B1,0.188,103
B2,1.26,93.3
B3,0.223,101
B4,0.119,
B5,0.215,101
B6,0.291,107
B7,0.251,94
